What was measured:
[1] = target: HA on intact H3N2 A/Aichi/2/1968 (X31) virions (Influenza A virus H3N2 A/Aichi/2/1968 …, UniProt P03437, strain); experiment: ELISA
[2] = target: representative H4 HA (Influenza A virus H4, strain not named …, UniProt M1UPL4, strain); experiment: ELISA

B1: FL-1066 IgG (human IgG1) (antibody, V domains shown)
VH: DVKLVESGEGLVKPGGSLKLSCAASGFTFSGYDMSWVRQTPEKRLEWVAYISSGGDYIYYADTVKGRFTISRDNARNTLYLQMSSLKSEDTAMYYCTRDSDYYGSRVWFAYWGQGTLVTVSG
VL: QAVVTQESALTTSPGETVTLTCRSSTGAVTTSNYANWVQEKPDHLFTGLIGGTNNRAPGVPARFSGSLIGDKAALTITGAQTEDEAIYFCALWFSNHWVFGGGTKLTVL
B1: binds [1]; binds [2].

Source: PMC6748655 (Cell host & microbe, 2019)
